Measurements taken from patent US20150275215, “NEUTRALIZING RNA APTAMERS AGAINST PDGFBETA AND USES THEREOF IN THE THERAPY AND DIAGNOSIS OF HYPERPROLIFERATIVE DISEASES” (CONSIGLIO NAZIONALE DELLE RICERCHE, published 2015).

How the values were obtained:
[1] = biological target: PDGFRbeta extracellular domain (EC-PDGFRβ) (Homo sapiens, UniProt P09619 P09619:33-532); test: filter; 1 nM radiolabeled RNA, 1-1000 nM protein; unrelated aptamer background subtracted; conditions: tags: soluble, R&D Systems; label: 5'-32P
[2] = biological target: PDGFRalpha extracellular domain (EC-PDGFRα) (Homo sapiens, UniProt P16234 P16234:24-528); test: filter; no saturable binding detectable up to 1000 nM; conditions: tags: soluble, R&D Systems; label: 5'-32P
Chain of PDGFRalpha extracellular domain (EC-PDGFRα) (P16234 24-528, one chain of several): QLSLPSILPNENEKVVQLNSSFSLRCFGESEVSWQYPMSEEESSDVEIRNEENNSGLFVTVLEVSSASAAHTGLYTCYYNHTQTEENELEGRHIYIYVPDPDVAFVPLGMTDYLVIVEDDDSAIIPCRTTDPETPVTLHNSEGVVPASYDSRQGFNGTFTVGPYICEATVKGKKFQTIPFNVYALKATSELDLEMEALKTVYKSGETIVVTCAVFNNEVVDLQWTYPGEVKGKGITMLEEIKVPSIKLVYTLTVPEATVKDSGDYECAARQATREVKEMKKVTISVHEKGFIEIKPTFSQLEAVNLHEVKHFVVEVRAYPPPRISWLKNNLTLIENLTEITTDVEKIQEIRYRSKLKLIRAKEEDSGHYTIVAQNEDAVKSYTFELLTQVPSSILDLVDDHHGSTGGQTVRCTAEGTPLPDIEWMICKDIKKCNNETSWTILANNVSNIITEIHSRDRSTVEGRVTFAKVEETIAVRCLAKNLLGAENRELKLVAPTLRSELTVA

Chain of PDGFRbeta extracellular domain (EC-PDGFRβ) (P09619 33-532, one chain of several): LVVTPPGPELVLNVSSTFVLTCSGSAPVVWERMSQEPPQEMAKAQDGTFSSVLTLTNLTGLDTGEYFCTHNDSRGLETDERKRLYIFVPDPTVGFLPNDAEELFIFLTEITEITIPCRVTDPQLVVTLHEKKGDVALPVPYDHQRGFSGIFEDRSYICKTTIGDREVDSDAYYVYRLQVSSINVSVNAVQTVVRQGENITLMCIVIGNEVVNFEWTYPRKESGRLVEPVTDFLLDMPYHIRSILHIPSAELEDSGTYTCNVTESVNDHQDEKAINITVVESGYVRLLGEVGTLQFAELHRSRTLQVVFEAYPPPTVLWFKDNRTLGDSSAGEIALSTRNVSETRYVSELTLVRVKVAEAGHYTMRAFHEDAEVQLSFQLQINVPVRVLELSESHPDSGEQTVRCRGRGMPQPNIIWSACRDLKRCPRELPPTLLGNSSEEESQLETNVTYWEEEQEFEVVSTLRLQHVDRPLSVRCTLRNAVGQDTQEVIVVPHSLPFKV

Binder	Kd [1] [nM]	binding result [2]
Gint4 (ssRNA, 2'-F all pyrimidines) RNA: GGGAGACAAGAAUAAACGCUCAAUCAUAAGAGGUAUCACAUUGUCGUGGGGCAUCGAGUAAAUGCAAUUCGACAGGAGGCUCACAACAGGC	10.4	–
UGUCGUGGGGCAUCGAGUAAAUGCAAUUCGACA (ssRNA, 2'-F all pyrimidines) [Gint4.T]	9.6	no binding
